Experimental data published in publication PMC9844003 (2023).

How the values were obtained:
[1] = target: T1, full-length human CD47 stably expressed on CHO cells (CHO-hCD47) (human, UniProt Q08722 19-323); assay: FACS; pH 7.4, competition with bio-SIRPα-Fc
[2] = target: T2, extracellular domain of CD47 fused to a His(×6)-Avi-tag (human); assay: ELISA; pH 7.4
[3] = target: T3, cell-surface CD47 on Raji, Jurkat and MDA-231 tumor cells (human (endogenous in Raji, Jurkat, …, UniProt Q08722 19-323)); assay: FACS; MDA-231, pH 7.4
T3 sequence (Q08722 19-323): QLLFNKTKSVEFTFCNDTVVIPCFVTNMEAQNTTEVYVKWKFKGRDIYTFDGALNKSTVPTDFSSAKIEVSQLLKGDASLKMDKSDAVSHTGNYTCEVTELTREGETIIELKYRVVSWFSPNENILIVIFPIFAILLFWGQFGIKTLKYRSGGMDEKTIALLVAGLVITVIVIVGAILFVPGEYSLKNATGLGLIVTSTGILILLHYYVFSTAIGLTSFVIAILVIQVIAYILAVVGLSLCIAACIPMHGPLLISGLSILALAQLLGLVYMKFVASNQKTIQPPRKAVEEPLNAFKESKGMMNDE

[4] = target: T3, cell-surface CD47 on Raji, Jurkat and …; assay: FACS; Jurkat, pH 6.8, competition with bio-SIRPα-Fc
[5] = target: T3, cell-surface CD47 on Raji, Jurkat and …; assay: FACS; Jurkat, pH 7.4
[6] = target: T3, cell-surface CD47 on Raji, Jurkat and …; assay: FACS; Raji, pH 7.4, competition with bio-SIRPα-Fc
[7] = target: T1, full-length human CD47 stably expressed …; assay: FACS; pH 6.8, competition with bio-SIRPα-Fc
[8] = target: T2, extracellular domain of CD47 fused to a …; assay: ELISA; pH 7.6
[9] = target: T3, cell-surface CD47 on Raji, Jurkat and …; assay: FACS; Raji, pH 7.4
[10] = target: T3, cell-surface CD47 on Raji, Jurkat and …; assay: FACS; Jurkat, pH 7.4, competition with bio-SIRPα-Fc
[11] = target: T2, extracellular domain of CD47 fused to a …; assay: SPR; pH 7.4
[12] = target: T2, extracellular domain of CD47 fused to a …; assay: ELISA; pH 6.4
[13] = target: T1, full-length human CD47 stably expressed …; assay: FACS; pH 7.4
[14] = target: T2, extracellular domain of CD47 fused to a …; assay: ELISA; pH 7.2
[15] = target: T2, extracellular domain of CD47 fused to a …; assay: ELISA; pH 6.6
[16] = target: T3, cell-surface CD47 on Raji, Jurkat and …; assay: FACS; Jurkat, pH 6.8
[17] = target: T3, cell-surface CD47 on Raji, Jurkat and …; assay: FACS; MDA-231, pH 7.4, competition with bio-SIRPα-Fc
[18] = target: T3, cell-surface CD47 on Raji, Jurkat and …; assay: FACS; Raji, pH 6.8
[19] = target: T1, full-length human CD47 stably expressed …; assay: FACS; pH 6.8
[20] = target: T2, extracellular domain of CD47 fused to a …; assay: ELISA; pH 6.8
[21] = target: T2, extracellular domain of CD47 fused to a …; assay: ELISA; pH 7.0
[22] = target: T2, extracellular domain of CD47 fused to a …; assay: SPR; pH 6.8
[23] = target: T3, cell-surface CD47 on Raji, Jurkat and …; assay: FACS; MDA-231, pH 6.8
[24] = target: T3, cell-surface CD47 on Raji, Jurkat and …; assay: FACS; MDA-231, pH 6.8, competition with bio-SIRPα-Fc
[25] = target: T3, cell-surface CD47 on Raji, Jurkat and …; assay: FACS; Raji, pH 6.8, competition with bio-SIRPα-Fc
[26] = target: T2, extracellular domain of CD47 fused to a …; assay: ELISA; pH 6.2

T1 sequence (Q08722 19-323): as above
T2 sequence (chain, as listed by the source): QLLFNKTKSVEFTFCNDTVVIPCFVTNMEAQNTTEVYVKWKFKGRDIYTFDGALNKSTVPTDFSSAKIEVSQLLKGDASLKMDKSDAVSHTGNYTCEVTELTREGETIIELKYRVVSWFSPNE

IC50 [1] [nM]	EC50 [2] [nM]	EC50 [3] [nM]	IC50 [4] [nM]	EC50 [5] [nM]	IC50 [7] [nM]	EC50 [9] [nM]	Kd [11] [nM]	EC50 [13] [nM]	EC50 [14] [nM]	EC50 [16] [nM]	IC50 [17] [nM]	EC50 [18] [nM]	EC50 [19] [nM]	EC50 [21] [nM]	EC50 [23] [nM]	IC50 [24] [nM]	IC50 [25] [nM]	Binder	other results
5.9	0.04	3.3	4.2	2	4.1	4	6.9	4.1	0.04	1.5	9.3	0.7	4.8	0.04	1.2	1.7	1.2	BC31M5 (hIgG1 form) (antibody, V domains shown) VH: QVQLVQSGAEVKKPGASVKVSCKASGYTFTSYGISWVRQAPGQGLEWMGWISAYNGNTNYAQKLQGRVTMTTDTSTSTAYMELRSLRSDDTAVYYCARGTVYFDYWGQGTLVTVSS VL: EIVLTQSPATLSLSPGERATLSCRASQSLSRNHLAWYQQKPGQPPRLLIHWASTRESGVPDRFSGSGSGTDFTLTISSLQAEDVAVYYCQQHTQNTWTFGQGTKVEIK	IC50 [6]: 6.7 nM; EC50 [8]: 0.06 nM; IC50 [10]: 17.2 nM; EC50 [12]: 0.05 nM; EC50 [15]: 0.05 nM; EC50 [20]: 0.04 nM; Kd [22]: 3.6 nM; EC50 [26]: 0.06 nM
							1170											BC27 (hIgG1 form) (antibody, V domains shown) VH: QVQLVQSGAEVKKPGASVKVSCKASGYTFTSYGISWVRQAPGQGLEWMGWISAYNGNTNYAQKLQGRVTMTTDTSTSTAYMELRSLRSDDTAVYYCARGKVYFDYWGQGTLVTVSS VL: EIVLTQSPATLSLSPGERATLSCRASQSLSRNHLAWYQQKPGQPPRLLIHWASTRESGVPDRFSGSGSGTDFTLTISSLQAEDVAVYYCQQYYTASWTFGQGTKVEIK	
~30.4	0.51	~231	35	~131	5.4	~92	457	~21.4	0.11	1.54	~507	6.8	4.8	0.04	8.5	22.7	19.9	BC31M4 (hIgG1 form) (antibody, V domains shown) VH: QVQLVQSGAEVKKPGASVKVSCKASGYTFTSYGISWVRQAPGQGLEWMGWISAYNGNTNYAQKLQGRVTMTTDTSTSTAYMELRSLRSDDTAVYYCARGAVYFDYWGQGTLVTVSS VL: EIVLTQSPATLSLSPGERATLSCRASQSLSRNHLAWYQQKPGQPPRLLIHWASTRESGVPDRFSGSGSGTDFTLTISSLQAEDVAVYYCQQHTQNTWTFGQGTKVEIK	
